Three substances from patent US8124332B2, “Methods of using sIP-10, CD26 inhibitors and CXCR3 levels in a sample to assess clearance of infection, response to interferon therapy, and treating chronic infections” (Institut Pasteur, priority 2006, dated 2012) can be followed below.

A value given as a limit tells only on which side of the number the result lay.

Test [1] deals with T1, CXCR3 (Homo sapiens, UniProt P49682).
T1 sequence (P49682 1-368): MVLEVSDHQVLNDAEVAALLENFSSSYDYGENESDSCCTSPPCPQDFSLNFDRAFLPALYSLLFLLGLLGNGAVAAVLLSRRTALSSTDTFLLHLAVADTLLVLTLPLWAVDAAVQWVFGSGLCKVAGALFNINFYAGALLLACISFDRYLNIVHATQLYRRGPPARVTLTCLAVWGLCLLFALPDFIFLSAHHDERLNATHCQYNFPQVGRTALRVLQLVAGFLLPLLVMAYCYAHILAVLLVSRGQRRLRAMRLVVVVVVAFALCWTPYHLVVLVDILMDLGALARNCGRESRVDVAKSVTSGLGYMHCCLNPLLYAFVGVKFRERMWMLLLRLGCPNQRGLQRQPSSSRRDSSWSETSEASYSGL
Put plainly: Ca++ flux in CHO cells transfected with a CXCR3 expressing plasmid. Format: cell-based. Details: transfected with a plasmid encoding the full-length open reading frame of CXCR3; expressed in transfected cells; plasmid from Dr. C P Tensen, Leiden. The text has this:
In order to test the hypothesis, it was necessary to generate novel reagents. First, recombinant full length CXCL10 (1-77) was exposed to recombinant DPP4 and cleavage was monitored by SELDI mass spectroscopy (FIG. 18A). […] Next, the inventors performed in vitro studies confirming that CXCL10 (1-77) but not CXCL10 (3-77) is capable of: (i) directing the migration of CXCR3^+ cells (FIG. 18B); (ii) mediating receptor internalization in primary PBMCs (not shown); and (iii) triggering a Ca^++ flux in CHO cells transfected with a CXCR3 expressing plasmid (FIGS. 18C, 18D). […] To date, however, there has been no in vivo evidence to support a role for CXCL10 antagonism in disease pathogenesis. […]
To generate CXCL10 (3-77), recombinant human CXCL10 (Peprotech, Rocky Hill, N.Y. USA) was incubated with recombinant DPP4 (Sigma) in a 100 mM Tris-HCL pH 8 solution, for 2 h at 37° C. […] Arrays were incubated and washed as per manufacturers instructions and analyzed using the ProteinChip System Series 4000 (Ciphergen). […] Data were analyzed using CiphergenExpress Software. […] Lymphocytes were allowed to migrate for 2 hours at 37° C. and cells in the bottom chamber were counted using a Guava cytometer (Guava Technologies, C A, USA). Calcium-flux assays: Increased intracellular [Ca^2+] in response to CXCR3 signaling were monitored by FACS. […] Ca^++ release was measured using a Canto II Cytometer. […]

Test [2] relates to plasma DPP activity (X-prolyl DPP). The settings on record: plasma of patients with HCV infection.
Test [3] has as its system CXCR3+ cells. Briefly: Lymphocyte chemotaxis assay. The settings on record: PHA-T blasts, chemokine in bottom chamber, 2 hours at 37° C. Format: cell-based, human.
For test [4], the target named is T1, CXCR3. Put plainly: Receptor internalization in primary PBMCs. Format: cell-based. Details: endogenous in cells; host or cells: primary PBMCs. The text has this:
In order to test the hypothesis, it was necessary to generate novel reagents. First, recombinant full length CXCL10 (1-77) was exposed to recombinant DPP4 and cleavage was monitored by SELDI mass spectroscopy (FIG. 18A). […] Next, the inventors performed in vitro studies confirming that CXCL10 (1-77) but not CXCL10 (3-77) is capable of: (i) directing the migration of CXCR3^+ cells (FIG. 18B); (ii) mediating receptor internalization in primary PBMCs (not shown); and (iii) triggering a Ca^++ flux in CHO cells transfected with a CXCR3 expressing plasmid (FIGS. 18C, 18D). […] To date, however, there has been no in vivo evidence to support a role for CXCL10 antagonism in disease pathogenesis. In part, the challenge in establishing in vivo evidence of this mechanism of immune regulation is due to the inability to discriminate the two forms of the chemokine by a sensitive, immune-based assay.

As to “CXCL10 (3-77): NH2-terminal truncated CXCL10 generated by DPP4 cleavage of two amino acids, antagonist form”, the “antagonism of CXCL10 (1-77) induced Ca++ mobilization” value in test [1] (5 min pre-treatment, then CXCL10 (1-77)) is “antagonized”.

As to isoleucine-proline-isoleucine [IPI], in test [2], the “inhibition of the enzymatic activity (plasma DPP activity)” value was over 98%.

With “CXCL10 (1-77): recombinant full length secreted human CXCL10, agonist form”, the “directing the migration of CXCR3+ cells” value in test [3] was “capable”. In test [4], the mediating receptor internalization entry was “capable”. The “triggering a Ca++ flux” value in test [1] (CHO cells transfected with CXCR3) is “capable”.
